Results as given in paper PMC8054679.

Tests used:
Hsp70 (Homo sapiens) = settings: cited from earlier work
SmBiT-CHIP-FLAG = test: split reporter
Chain of SmBiT-CHIP-FLAG (Q9UNE7 whole entry): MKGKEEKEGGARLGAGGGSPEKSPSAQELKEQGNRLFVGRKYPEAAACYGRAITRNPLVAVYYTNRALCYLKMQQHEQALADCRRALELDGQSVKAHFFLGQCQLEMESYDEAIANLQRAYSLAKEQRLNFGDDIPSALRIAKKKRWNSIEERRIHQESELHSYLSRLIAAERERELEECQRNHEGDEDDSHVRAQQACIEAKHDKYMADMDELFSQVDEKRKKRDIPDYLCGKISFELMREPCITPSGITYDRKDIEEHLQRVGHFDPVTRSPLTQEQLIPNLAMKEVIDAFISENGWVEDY

Chain of CHIP TPR (Q9UNE7 21-154): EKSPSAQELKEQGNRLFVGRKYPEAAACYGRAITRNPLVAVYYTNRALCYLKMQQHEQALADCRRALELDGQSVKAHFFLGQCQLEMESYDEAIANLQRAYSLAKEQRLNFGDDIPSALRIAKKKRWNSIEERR

| IC50 (SmBiT-CHIP-FLAG) [nM] | percent reduction of luminescence at 10 μM (SmBiT-CHIP-FLAG) [%] | Substance | Kd (Hsp70 (Homo sapiens)) [nM] |
| --- | --- | --- | --- |
| – | – | CHIP TPR (from UniProt Q9UNE7) | 600 |
| 2600 | 40 | R9-LWWPD (peptide; other documents disagree on this pair) | – |
